Data: the supplement of paper PMC9170038

Key:
MS2 coat protein [1] = experiment: apparent KD of MS2 coat protein, switch OFF state (with FMN for OFF switches, without FMN for ON switches); designed switch direction (-1 OFF switch, 1 ON switch): -1; higher = weaker reporter binding; settings: FMN input: 0 or 200 uM; Eterna round: R93 (includes R88 designs)
Method in brief: (§1)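 On-chip transcription from Illumina sequencing clusters produced the designed RNA switches. These were titrated with SNAP-549-labelled MS2 coat protein (twofold steps, 0.7 or 1.5 nM to 3 µM) in 100 mM Tris-HCl pH 7.5, 80 mM KCl, 4 mM MgCl2, with or without constant ligand. The apparent KD given is the per-design median of normalised cluster binding-curve fits.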

MS2 coat protein [2] = experiment: apparent KD of MS2 coat protein, switch ON state; designed switch direction (-1 OFF switch, 1 ON switch): -1; higher = weaker reporter binding; settings: FMN input: 0 or 200 uM; Eterna round: R93 (includes R88 designs)
Method in brief: as §1

| Sequence | apparent KD of MS2 coat protein (MS2 coat protein [1]) | apparent KD of MS2 coat protein (MS2 coat protein [2]) |
| --- | --- | --- |
| AAAUGUUGAGGAUAUACAUGAGGAUCACCCAUGUGUAAAAAUAAAUACACAAAAGAAAGUAGAAGGCAACAAAA [Ex 3 May 11] | 0.0797 µM | 0.0287 µM |
| AAAUUGUCAGGAUAUCGUAGAAUAGUGAAAAACUAGAGCUACGAGAAGGGACAUGAGGAUCACCCAUGUAAAAC [May 92] | 0.0544 µM | 0.0433 µM |
| AAAUUGUCAGGAUAUGUAGCAAAAGGUGAUCAAAAAAAGCUACAGAAGGGACAUGAGGAUCACCCAUGUAAAAA [Ex4: 936] | 0.359 µM | 0.242 µM |
| AACAAGUGAGGAUAUGAAAAUAAAACAAACAAACAAAUAAAUCAGAAGGCACAUGAGGAUCACCCAUGUAAAAA [JR_Exc004_Sub1203] | 0.0185 µM | 0.0171 µM |
| AACAGGACAGGAUAUACAUGAGGAUCACCCAUGUGAGAAUUCAGUAGAUUGCCACAGAGUAGAAGGGUCCUGGA [Ruby 100] | 0.102 µM | 0.0585 µM |
| AACAGUACAGGAUAUACAUGAGGAUCACCCAUGUAAAAAUAAAAGGGAAUCUCAAAAAGUAGAAGGGUACUGGA [Moding Maslow revisited (73) 13] | 0.0363 µM | 0.0725 µM |
| AACAGUACAGGAUAUACAUGAGGAUCACCCAUGUGAAAAGAAAGUGGCGUACCACAAAGUAGAAGGGUACUGGA [Mat - Exclusion 3 - JL mod - D24] | 0.0968 µM | 0.0275 µM |
| AACAGUACAGGAUAUACAUGAGGAUCACCCAUGUGAAAAUUAAGUGGAAAACCACAAUGUAGAAGGGUACUGGA [Mat - Exclusion 3 - Eli mod - D49] | 0.219 µM | 0.0461 µM |
| AACAGUACAGGAUAUACAUGAGGAUCACCCAUGUGAAAAUUAAGUGGAGAACCACAAUGUAGAAGGGUACUGGA [Mat - Exclusion 3 - Eli mod - D48] | 0.0573 µM | 0.133 µM |
| AACAGUACAGGAUAUACAUGAGGAUCACCCAUGUGAAAAUUAAGUGGAGAACCACAGUGUAGAAGGGUACUGGA [Mat - Exclusion 3 - Eli mod - D52] | 0.0498 µM | 0.142 µM |
| AACAGUACAGGAUAUACAUGAGGAUCACCCAUGUGAAAUAAAAGUGGCGUACCACAAAGUAGAAGGGUACUGGA [Mat - Exclusion 3 - JL mod - D22] | 0.119 µM | 0.0273 µM |
| AACAGUACAGGAUAUACAUGAGGAUCACCCAUGUGAAGAAUAAGUGGAGUACCACAAAGUAGAAGGGUACUGGA [Ruby 88] | 0.104 µM | 0.0318 µM |
| AACAGUACAGGAUAUACAUGAGGAUCACCCAUGUGACAUAAAUAAAACAAAAAUAAAAGUAGAAGGGUACUGGA [Ruby 43] | 0.06 µM | 0.0285 µM |
| AACAGUACAGGAUAUACAUGAGGAUCACCCAUGUGAGAAAUAAGUGGCGUACCACAAAGUAGAAGGGUACUGGA [Mat - Exclusion 3 - JL mod - D21] | 0.15 µM | 0.0326 µM |
| AACAGUACAGGAUAUACAUGAGGAUCACCCAUGUGAGAAUUAAAAGGCGUACCUAAAUGUAGAAGGGUACUGGA [JL Maslow Revisted mod 19] | 0.0618 µM | 0.0563 µM |
| AACAGUACAGGAUAUACAUGAGGAUCACCCAUGUGAUAGGAAUAAAACAAAAAUAAAAGUAGAAGGGUACUGGA [Ruby 46] | 0.145 µM | 0.034 µM |
| AACAUACAUGAGGAUCACCCAUGUCAGGAUAUGCCGGGUUAGAGCCAACUGAAAAACCGUAGAAGGGACGAAAA [Bilbo Confounded 8 - Jieux - Exclusion 1] | 0.0795 µM | 0.0669 µM |

| Sequence | apparent KD of MS2 coat protein (MS2 coat protein [1]) | apparent KD of MS2 coat protein (MS2 coat protein [2]) |
| --- | --- | --- |
| AACAUGUAAGGAUAUGCUGCUCGUCACAAAAGUGAUGAGUAGCAGAAGGUACAUGAGGAUCACCCAUGUAAAGA [JL eternac mod 14] | 0.111 µM | 0.0506 µM |
| AACAUGUCAGGAUAUGCAAAAGGAGACUGACACGCGAGUGAGCAGAAGGGACAUGAGGAUCACCCAUGUUCAAA [Mat - Mod of Meechl] | 0.0156 µM | 0.0209 µM |
| AACAUGUCAGGAUAUGUAGCAAAAGGUGAUCAAAAAAAGCUACAGAAGGGACAUGAGGAUCACCCAUGUAAAAA [Ex4: 934] | 0.0371 µM | 0.126 µM |
| AACAUGUCAGGAUAUGUAGCAUGAUACGAAAGUAUCAUGCUACAGAAGGGACAUGAGGAUCACCCAUGUGAUCA [Ex4: 940] | 0.022 µM | 0.0267 µM |
| AACAUGUCAGGAUAUGUGGAAAGAAUAAAAGAAAUAAGAACACAGAAGGGACAUGAGGAUCACCCAUGUCAACA [May 31] | 0.0257 µM | 0.0277 µM |
| AACUGACAUGAGGAUCACCCAUGUCAGGAUAUGCAUCUUAGGAAAAAAAAACUAAGAUGCAGAAGGGACAUGGA [Design 4: Super Stable 4] | 0.0462 µM | 0.0239 µM |
| AACUGACAUGAGGAUCACCCAUGUCAGGAUAUGCUUCAUAAAAUAAAAAUAAAAUGAUGCAGAAGGGACAUGAA [Design 27 :P Sub-opt 3] | 0.0135 µM | 0.0154 µM |
| AACUGGGCAGGAUAUACAUGAGGAUCACCCAUGUAAAGAAAAGAAAGAUCCGAAGAAAGUAGAAGGGCCUGGAA [Variant 3 of Mod 1 of Ex3 sub 3, by Tesla's Dusciple Round 1] | 0.126 µM | 0.098 µM |
| AAGAAACAUGAGGAUCACCCAUGUGAGGAUAUCUAAAAGAAAAGAAAAGAAAGAAGAAAGAGAAGGCACAAAGG [Setut] | 0.0641 µM | 0.0347 µM |
| AAGAACCUAGGAUAUACAUGAGGAUCACCCAUGUAAAAGAAAGAAAGGGAAAAGAAAAGUAGAAGGAGGAAGAA [Heqakheperre Shoshenq II] | 0.0157 µM | 0.0121 µM |
| AAGAACGGAGGAUAUACAAAAUAAAAGAAAAGAAAGAAAGAACAUGAGGAUCACCCAUGUAGAAGGCCGAAGAA [Sehetepibre Sewesekhtawy] | 0.029 µM | 0.0209 µM |
| AAGAACUCAGGAUAUACAUGAGGAUCACCCAUGUAAAAGAAAGAGGGAAAAGAGAAAAGUAGAAGGGAGAAGAA [Ptolemy IV Philopator] | 0.0469 µM | 0.014 µM |
| AAGAACUGAGGAUAUACAUGAAAGAAAGAAAAGAAAAGAAAACAUGAGGAUCACCCAUGUAGAAGGCAGAAGAA [EteRNA is fun!] | 0.0144 µM | 0.0169 µM |
| AAGAAGAAAGGAUAUACAAGGAAGAAAGAAAAGAAAAGAAAACAUGAGGAUCACCCAUGUAGAAGGUUCUAGAA [EteRNA is fun!] | 0.0095 µM | 0.0152 µM |
| AAGAAGACAGGAUAUACAUGAGGAUCACCCAUGUAAAAGAAAGAAGGGAAAGAGAAAAGUAGAAGGGUCAAGAA [Menkheperre Ini] | 0.0253 µM | 0.0236 µM |
| AAGAAGCAAGGAUAUACAUGAAAGAAAGAAAAGAAAAGAAAACAUGAGGAUCACCCAUGUAGAAGGUGCUAGAA [EteRNA is fun!] | 0.0478 µM | 0.0346 µM |
| AAGAAGCAAGGAUAUACAUGAGGAUCACCCAUGUAAAAGAAAGAAAAGGGAAAGAAAAGUAGAAGGUGCAAAGA [Ruby 69] | 0.0728 µM | 0.0436 µM |
